Data from patent US20140308269A1 (published 2014).

Columns and labels:
[1] = molecular target: T1, soluble ICAM-1 (Bender MedSystems) (UniProt P05362 28-480, limits assumed); assay: ELISA on plate-coated soluble ICAM-1, His-tagged scFv detected with anti-His-HRP
T1 construct: Bought soluble protein coated on the ELISA plate
Procedure: (§1) To evaluate the binding affinity of histidine-tagged human single chain (hsc) proteins soluble ICAM was used in an ELISA assay. A 96-well EIA plate (Corning, Inc.) was coated with 100 μl/well soluble ICAM-1 (Bender MedSystems) at 1 μg/ml in 0.1 M. NaHCO₃. After washing with TBST (50 mM Tris, pH8.0, 150 mM NaCl, 0.05% Tween-20), the plate was blocked with 3% non-fat milk in TBST at 37° C. for 1 hour. After washing with TBST, the plate was incubated with scFv samples (100 μl/well) diluted in 1% non-fat milk/TBST solution at room temperature for 1 hour. After washing with TBST, the horse radish peroxidase-conjugated anti-His (C-term) antibody (Invitrogen) diluted 1:2000 in 1% non-fat milk/TBST was added and the plate was incubated at room temperature for 1 hour. The plate was washed thoroughly with TBST and 100 μl/well 3,3′,5,5′-tetramethylbenzidine substrate solution (Kirkegaard and Perry Laboratories) was added. After 5 min incubation, the color development was stopped by adding […] 0.12 N HCl and the absorbance of the wells at 450 nm was measured by a plate reader (ICN).

ICAM-1 on HeLa cells [2] = molecular target: T2, ICAM-1 on HeLa cells (UniProt P05362 28-532, limits assumed); assay: cell-based or functional assay
[3] = molecular target: T1, soluble ICAM-1 (Bender MedSystems); assay: ELISA on plate-coated soluble ICAM-1; reference Msc1A6
Procedure: as §1

ICAM-1 on HeLa cells [4] = molecular target: T2, ICAM-1 on HeLa cells; assay: cell-based or functional assay; remark: listed apart in the source

T1 sequence (P05362 28-480 limits assumed): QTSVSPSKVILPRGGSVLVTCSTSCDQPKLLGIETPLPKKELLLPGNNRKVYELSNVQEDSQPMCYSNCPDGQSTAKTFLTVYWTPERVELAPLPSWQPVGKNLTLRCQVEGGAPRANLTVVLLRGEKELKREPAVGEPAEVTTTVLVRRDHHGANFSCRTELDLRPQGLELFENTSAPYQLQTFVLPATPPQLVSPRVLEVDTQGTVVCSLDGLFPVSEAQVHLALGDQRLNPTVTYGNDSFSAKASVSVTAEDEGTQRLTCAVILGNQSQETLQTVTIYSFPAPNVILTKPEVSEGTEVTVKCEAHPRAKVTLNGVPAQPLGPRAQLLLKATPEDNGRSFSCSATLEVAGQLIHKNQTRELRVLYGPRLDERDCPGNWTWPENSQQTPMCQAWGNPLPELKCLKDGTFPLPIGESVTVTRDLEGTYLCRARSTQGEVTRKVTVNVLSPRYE
T2 sequence (P05362 28-532 limits assumed): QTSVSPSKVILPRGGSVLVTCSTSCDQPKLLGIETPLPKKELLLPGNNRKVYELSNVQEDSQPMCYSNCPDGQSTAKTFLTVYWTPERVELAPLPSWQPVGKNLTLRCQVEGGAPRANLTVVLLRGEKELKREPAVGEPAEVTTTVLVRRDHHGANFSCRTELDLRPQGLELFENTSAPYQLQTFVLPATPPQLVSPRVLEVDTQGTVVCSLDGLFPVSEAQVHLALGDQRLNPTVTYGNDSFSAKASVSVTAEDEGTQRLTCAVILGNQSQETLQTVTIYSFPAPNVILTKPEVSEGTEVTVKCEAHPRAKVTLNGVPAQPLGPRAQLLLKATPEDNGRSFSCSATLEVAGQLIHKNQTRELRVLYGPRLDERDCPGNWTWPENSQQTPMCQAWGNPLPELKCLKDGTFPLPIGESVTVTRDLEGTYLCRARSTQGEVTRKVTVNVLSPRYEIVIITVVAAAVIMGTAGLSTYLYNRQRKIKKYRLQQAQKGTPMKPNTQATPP

B1: Msc1A6 (parental mouse monoclonal antibody 1A6 in the form of scFv) (scFv, V domains shown)
VH: EVQLQQSGAELVKPGASLKLSCTASGFNIKDTYIHWMKQRPEQGLEWIGRIDPANDNTIYDPKVQGKATMTADTSSNTAYLQLNSLTSEDTAVYYCTTSGYWFAYWGQGTLVTVSS
VL: DIVLTQSPATLSVTPGDSVSLSCRASQSISNNLHWYQQKHSESPRLLIKHASQSISGIPSRFSGSGSGTDFTLSINSVETEDFGMFFCQQSNSWPYTFGGGTKLEIKR
notes: Tested as a single-chain Fv (one polypeptide); also called Mouse 1A6 scFv; mouse IA6 scFv
[1]
  Kd: 1180 nM
ICAM-1 on HeLa cells [2]
  EC 50 (µM): 50% protection of HeLa cells against HRV15 infection at 1 MOI: > 10 µM

B2: HscD (humanized 1A6 scFv HumD) (scFv)
scFv: DIQMTQSPSSLSASVGDRVTITCRASQSISNNLHWYQQKPGKAPKLLIYHASQSISGVPSRFSGSGSGTDFTLTISSLQPEDFATYYCQQSNSWPYTFGQGTKVEIKRGGGGSGGGGSGGGGSGGGGSEVQLVESGGGLVQPGGSLRLSCAASGFNIKDTYIHWVRQAPGKGLEWVARIDPANDNTIYADSVKGRFTISSDDSKNTAYLQMNSLRAEDTAVYYCTTSGYWFAYWGQGTLVTVSS
notes: not shown: carboxy-terminal His tag of vector pBAD/pIII A
[1]
  Kd: 23.3 nM
ICAM-1 on HeLa cells [2]
  EC 50 (µM): 50% protection of HeLa cells against HRV15 infection at 1 MOI: 0.05 µM
[3]
  fold higher binding affinity than the parental mouse scFv: > 10 fold

B3: HscB (humanized 1A6 scFv HumB) (scFv)
scFv: DIQMTQSPSSLSASVGDRVTITCRASQSISNNLHWYQQKPGKAPKLLIYHASQSISGVPSRFSGSGSGTDFTLTISSLQPEDFATYYCQQSNSWPYTFGQGTKVEIKRGGGGSGGGGSGGGGSGGGGSEVQLVESGGGLVQPGGSLRLSCAASGFNIKDTYIHWVRQAPGKGLEWVARIDPANDNTIYADSVKGRFTISSDDSKNTAYLQMNSLRAEDTAVYYCTASGYWFAYWGQGTLVTVSS
notes: also called Hum19; Hum 19 scFv; not shown: carboxy-terminal His tag of vector pBAD/pIII A
ICAM-1 on HeLa cells [4]
  EC50 of protection of HeLa cells from HRV infection, against the parental mouse 1A6 scFv protein: > 60 fold
[1]
  Kd: 26.2 nM
[3]
  fold higher binding affinity than the parental mouse scFv: > 10 fold

B4: HscI (humanized 1A6 scFv HumI) (scFv)
scFv: DIQMTQSPSSLSASVGDRVTITCRASQSISNNLHWYQQKPGKAPKLLIKHASQSISGVPSRFSGSGSGTDFTLTISSLQPEDFATYYCQQSNSWPYTFGQGTKVEIKRGGGGSGGGGSGGGGSGGGGSEVQLVESGGGLVQPGGSLRLSCAASGFNIKDTYIHWMRQAPGKGLEWVARIDPANDNTIYDPKVQGRFTMSADTSKNTAYLQMNSLRAEDTAVYYCTTSGYWFAYWGQGTLVTVSS
notes: as for B2
[1]
  Kd: 150 nM
ICAM-1 on HeLa cells [2]
  EC 50 (µM): 50% protection of HeLa cells against HRV15 infection at 1 MOI: > 10 µM
[3]
  fold higher binding affinity than the parental mouse scFv: > 10 fold

B5: HscA (humanized 1A6 scFv HumA) (scFv)
scFv: DIQMTQSPSSLSASVGDRVTITCRASQSISNNLHWYQQKPGKAPKLLIYHASQSISGVPSRFSGSGSGTDFTLTISSLQPEDFATYYCQQSNSWPYTFGQGTKVEIKRGGGGSGGGGSGGGGSGGGGSEVQLVESGGGLVQPGGSLRLSCAASGFNIKDTYIHWVRQAPGKGLEWVARIDPANDNTIYADSVKGRFTISSDDSKNTAYLQMNSLRAEDTAVYYCTDSGYWFAYWGQGTLVTVSS
notes: also called humanized scFv A; scFV3; not shown: carboxy-terminal His tag of vector pBAD/pIII A
[1]
  Kd: 150 nM
[3]
  fold higher binding affinity than the parental mouse scFv: > 10 fold

B6: HscH (humanized 1A6 scFv HumH) (scFv)
scFv: DIQMTQSPSSLSASVGDRVTITCRASQSISNNLHWYQQKPGKAPKLLIKHASQSISGVPSRFSGSGSGTDFTLTISSLQPEDFATYYCQQSNSWPYTFGQGTKVEIKRGGGGSGGGGSGGGGSGGGGSEVQLVESGGGLVQPGGSLRLSCAASGFNIKDTYIHWVRQAPGKGLEWVARIDPANDNTIYDPKVQGRFTISADDSKNTAYLQMNSLRAEDTAVYYCTTSGYWFAYWGQGTLVTVSS
notes: as for B2
[1]
  Kd: 20.9 nM
ICAM-1 on HeLa cells [2]
  EC 50 (µM): 50% protection of HeLa cells against HRV15 infection at 1 MOI: 4.2 µM
[3]
  fold higher binding affinity than the parental mouse scFv: > 10 fold

B7: HscC (humanized 1A6 scFv HumC) (scFv)
scFv: DIQMTQSPSSLSASVGDRVTITCRASQSISNNLHWYQQKPGKAPKLLIYHASQSISGVPSRFSGSGSGTDFTLTISSLQPEDFATYYCQQSNSWPYTFGQGTKVEIKRGGGGSGGGGSGGGGSGGGGSEVQLVESGGGLVQPGGSLRLSCAASGFNIKDTYIHWVRQAPGKGLEWVARIDPANDNTIYADSVKGRFTISGDDSKNTAYLQMNSLRAEDTAVYYCTTSGYWFAYWGQGTLVTVSS
notes: as for B2
[1]
  Kd: 58 nM
[3]
  fold higher binding affinity than the parental mouse scFv: > 10 fold

B8: HscF (humanized 1A6 scFv HumF) (scFv)
scFv: DIQMTQSPSSLSASVGDRVTITCRASQSISNNLHWYQQKPGKAPKLLIYHASQSISGVPSRFSGSGSGTDFTLTISSLQPEDFATYYCQQSNSWPYTFGQGTKVEIKRGGGGSGGGGSGGGGSGGGGSEVQLVESGGGLVQPGGSLRLSCAASGFNIKDTYIHWVRQAPGKGLEWVARIDPANDNTIYADSVKGRFTISADDSKNTAYLQMNSLRAEDTAVYYCTTSGYWFAYWGQGTLVTVSS
notes: as for B2
[1]
  Kd: 46 nM
ICAM-1 on HeLa cells [2]
  EC 50 (µM): 50% protection of HeLa cells against HRV15 infection at 1 MOI: 0.29 µM
[3]
  fold higher binding affinity than the parental mouse scFv: > 10 fold
